Assays:
human VEGF165 [1] = biological target: T1, human VEGF165 (human, UniProt P15692-4 27-191); experiment: comparison of affinity for VEGF, reference Avastin
human VEGF165 [2] = biological target: T1, human VEGF165; experiment: solution binding: human VEGF incubated 1 h at 37 C with dilutions of binder, free VEGF measured by ELISA kit
human VEGF165 [3] = biological target: T1, human VEGF165; experiment: binding assay on purified fusion protein (quality testing)

T1 sequence (P15692 other isoform, or with tags, fused parts or gaps limits assumed): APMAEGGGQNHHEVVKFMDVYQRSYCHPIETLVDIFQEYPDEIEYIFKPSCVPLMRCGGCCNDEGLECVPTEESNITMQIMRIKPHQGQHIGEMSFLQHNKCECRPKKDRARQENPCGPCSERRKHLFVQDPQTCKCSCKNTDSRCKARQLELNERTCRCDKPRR

Binder	fold affinity against Avastin (human VEGF165 [1]) [fold]	IC50 (human VEGF165 [2]) [nM]	IC50 (human VEGF165 [3]) [nM]
FP3′ (FLTd2-KDRd3-KDRd4-Fc chimeric fusion protein) (Fc fusion) GRPFVEMYSEIPEIIHMTEGRELVIPCRVTSPNITVTLKKFPLDTLIPDGKRIIWDSRKGFIISNATYKEIGLLTCEATVNGHLYKTNYLTHRQTNTIIDVVLSPSHGIELSVGEKLVLNCTARTELNVGIDFNWEYPSSKHQHKKLVNRDLKTQSGSEMKKFLSTLTIDGVTRSDQGLYTCAASSGLMTKKNSTFVRVHEKPFVAFGSGMESLVEATVGERVRIPAKYLGYPPPEIKWYKNGIPLESNHTIKAGHVLTIMEVSERDTGNYTVILTNPISKEKQSHVVSLVVYVPP	50	0.01	≤ 0.05
VEGF-TRAP (FP1′, FLTd2KDRd3-Fc) (Fc fusion, UniProt P17948 129-230, looked up, domain: 2nd Ig-like domain of FLT-1;domain: 3rd Ig-like domain of KDR; also called VEGF Trap (R1R2); not shown: human immunoglobulin Fc (IgFc)) SDTGRPFVEMYSEIPEIIHMTEGRELVIPCRVTSPNITVTLKKFPLDTLIPDGKRIIWDSRKGFIISNATYKEIGLLTCEATVNGHLYKTNYLTHRQTNTIIDVVLSPSHGIELSVGEKLVLNCTARTELNVGIDFNWEYPSSKHQHKKLVNRDLKTQSGSEMKKFLSTLTIDGVTRSDQGLYTCAASSGLMTKKNSTFVRVHEK	–	0.03	–
